Laboratory results taken from patent US20140302063A1 (SECRETARY OF STATE FOR HEALTH, published 2014).

B1: R1a-C5 (VHH)
VHH: QVQLVESGGGLVQPGGSLRLSCAASNDIFSFYTMGWYLQAIGKQREPVAVIGNGGNTNYAESVKGRFTISRDGAKNTAYLQMNSLKPEDTAVYYCMASGPGGLNVWGQGTQVTVSS
B2: R1a-A5 (VHH)
VHH: QVQLVESGGGLVQPGGSLRLSCSASGSAVLFSTYPMSWYRQAPGKQRELVAAVTTDGSTSYADYAKGRFTISRDNAKNTVYLQMNSLKPEDTAVYYCNARDGFFNRYDYWGQGTQVTVSS
B3: R2b-D9 (VHH)
VHH: QVQLVESGGGLVQPGGSLRLSCLASGSAFSLYTMGWYRQAPGNQRELVAAITSGESTNYADSVKGRFTISRDNAKNTVYLQMNSLKPEDTAVYYCNADPLSTGWGQYSYWGQGTQVTVSS
B4: R1a-B6 (VHH)
VHH: QVQLVESGGGLVQPGGSLRLSCAASGSFFSRYRMGWYRQAPGEQRELVASIAYDGSTSYADPVKGRFTISRDNANTVHLQMYSLKPDDTAVYYCNLDPPGILYWGQGTQVTVSS
B5: R2a-G8 (VHH)
VHH: QLQLAESGGGLVQAGGSLRLSCAASGSTLNNNAIGWFRQAPGKEREGVSCMNSRDGTTNYADSVKGRFTISRDVAKNTVYLQMNSLKPEDTAVYFCAVKGFAPFLIGCPWGKAEYDYWGQGTQVTVSS
B6: R2b-E8 (VHH)
VHH: QVQLVESGGGLVQPGGSLRLSCAASGSFFSRYRMGWYRQAPGEQRELVAGITYDDSTNYAGSVKGRFTISRDNAKNTVHLQMNSLKPEDTAVYYCNLNPPGNLYWGQGTQVTVSS
B7: R1a-H6 (VHH)
VHH: QVQLVESGGGLVQAGDSLRLSCTASVLTFSLYRVGWFRQAPGKEREFVAAIDWGDGPTTYADSVKGRFTISRDNAERTAYLQINSLKPEDTAVYYCGAGNTGSSDRSSSYVHWGQGTQVTVSS

target: A/Duck/Sing-Q/97 (H5N3) inactivated viral preparation (Influenza A virus A/Duck/Sing-Q/97 (H5N3)); experiment: ELISA, inactivated virus

In order of falling EC50:
1. B5  9.67 µg/mL
2. B1  7.57 µg/mL
3. B3  5.64 µg/mL
4. B6  4.98 µg/mL
5. B4  1.32 µg/mL
6. B2  0.27 µg/mL

target: A/HongKong/1073/99 (H9N2) inactivated viral preparation (Influenza A virus A/HongKong/1073/99 (H9N2)); experiment: ELISA, inactivated virus

In order of falling EC50:
1. B7  5.7 µg/mL
2. B6  5.63 µg/mL
3. B1  4.48 µg/mL
4. B4  2.3 µg/mL

target: A/HongKong/213/2003 (H5N1) inactivated viral preparation (Influenza A virus A/HongKong/213/2003 (H5N1)); experiment: ELISA, inactivated virus

In order of rising EC50:
1. B2  0.27 µg/mL
2. B4  0.37 µg/mL
3. B6  1.2 µg/mL
4. B3  2.8 µg/mL
5. B1  2.9 µg/mL
6. B5  6.2 µg/mL

target: A/Indonesia/05/2005 (H5N1) inactivated viral preparation (Influenza A virus A/Indonesia/05/2005 (H5N1)); experiment: ELISA, inactivated virus

In order of rising EC50:
1. B2  0.15 µg/mL
2. B4  0.42 µg/mL
3. B3  0.58 µg/mL
4. B6  0.8 µg/mL
5. B1  1.17 µg/mL
6. B5  5.7 µg/mL

target: A/TurkTurk/1/2005 (H5N1) inactivated viral preparation (Influenza A virus A/turkey/Turkey/1/2005 (H5N1)); experiment: ELISA, inactivated virus

In order of falling EC50:
1. B5  1.93 µg/mL
2. B6  0.89 µg/mL
3. B3  0.76 µg/mL
4. B4  0.44 µg/mL
5. B1  0.15 µg/mL
6. B2  0.13 µg/mL

target: A/Vietnam/119/2004 (H5N1) inactivated viral preparation (Influenza A virus A/Vietnam/119/2004 (H5N1)); experiment: ELISA, inactivated virus

In order of falling EC50:
1. B5  3.36 µg/mL
2. B1  2.89 µg/mL
3. B6  1.83 µg/mL
4. B3  1.81 µg/mL
5. B4  0.82 µg/mL
6. B2  0.25 µg/mL

target: A/mallard/Eng/727/06 (H2N3) inactivated viral preparation (Influenza A virus A/mallard/Eng/727/06 (H2N3)); experiment: ELISA, inactivated virus

In order of rising EC50:
1. B6  0.002 µg/mL
2. B2  0.006 µg/mL
3. B1  0.06 µg/mL
4. B3  0.06 µg/mL
5. B4  0.102 µg/mL
6. B5  2.5 µg/mL
